Drawing on the supplement of paper PMC12042874, this text covers amyloid nucleation score for 58 substances.

± gives the uncertainty stated by the source.

The data set is described as follows: amyloid nucleation score (Sup35N fusion, yeast selection) (log enrichment); library NNK1; higher = more nucleation; inactive = no reads after selection. The method, boiled down:
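The nucleation score is the DiMSum log enrichment of output over input reads, centred on the mode score of non-aggregating sequences. Only sequences with 100 or more input reads were scored, using Illumina sequencing of input and output plasmid inserts. Psi-negative yeast expressing Sup35N fused to peptides of 20 random codons were induced 24 hours with 100 μM copper sulfate and grown 7 days at 30°C on medium lacking adenine and uracil.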
Consider LIWFVYMD, for which the amyloid nucleation score was found to be 0.347 ± 0.55.

In turn, CKRWRSILVKSSRSIMGTDV returned an amyloid nucleation score of -0.171 ± 1.1.

DIALMWLLLVHRDYT gave an amyloid nucleation score of -1.07 ± 0.76. With VRFTTIVYPSWFFSAW the figure was 0.565 ± 0.45; with CNYCIWPARFVVIHDAMCVS, -0.98 ± 1.1.

Turning to GWRNGKCFDGASPEWVLGHA, the amyloid nucleation score is -0.39 ± 1.2. Turning to VIVWGSRSFLGC, the amyloid nucleation score was determined as 3.49 ± 0.1. For VHESTSHRMWRSLI the value was 1.15 ± 0.41; for SQCELWGCSCTPYNRMFSGN, “inactive”. Turning to LGRKFT, the amyloid nucleation score amounted to 2.05 ± 0.41. FGYNILYINQSTWLLNFCQV gave an amyloid nucleation score of 6.56 ± 0.049. For AMLLLTCGL the value was 0.481 ± 0.74; for NICMQTRVIRAS, 0.811 ± 0.5. With FHVIGSARTLVVAQYLK the entry was “inactive”; with CLETACRILGFCN, -0.488 ± 0.21. For NTLSISDSYVEYETWEVIPV the value was 1.62 ± 0.5; for KDVFPILGFCSAYLPYAWSA, -0.474 ± 0.29. MCGQLV returned an amyloid nucleation score of -0.447 ± 0.74. ILLRLGDVVRIGLVFVTSFG yielded an amyloid nucleation score of 0.421 ± 0.61.

The substance WNCKLTMADGGSAKVAPLSS showed an amyloid nucleation score of 0.38 ± 0.32. For IAYNDSYMVKYCVREVLMDE the value was 4.29 ± 0.13; for YNSVKVNRFH, 1.3 ± 0.74. FNKTSMVSGNQLRVLVLVNI had an amyloid nucleation score of 1.08 ± 0.59. For SNIWSSKKINTCLGM the value was 1.7 ± 0.16; for VTLQQRLCSFYMLIVEFASS, 0.045 ± 0.43; for CVIQVVLYLV, 3.83 ± 0.059. With ILSLS the figure was 0.038 ± 0.18; with TLLELLCEWNTVHKGSP, 0.699 ± 0.3; with MNLSYSTIVIYHRNEDCNVY, 4.08 ± 0.094. For ECCWLRVTRLGLWDDVVHSE the value was -0.163 ± 0.33; for GMAHDWSRQWVRVSDAVLLR, -0.004 ± 0.6; for FKRSLRCLYVVACNALYWDA, -0.026 ± 0.51. In turn, IQSLVFRGKRVTHTKQSLTL gave an amyloid nucleation score of 0.262 ± 0.36. With SNLRMLNMASTSPR the figure was -0.368 ± 0.34. With SDMFSLNYSFDERTFWKQTS the entry was “inactive”. For SWSSVQSAVKGHPLGGNTGR the value was -0.72 ± 0.74. For the substance HECRWRTVYNQ, the amyloid nucleation score was 0.786 ± 0.93. For YRTSWEAVQGWSFS the value was -1.64 ± 1.3; for LYGLLAGIMSCHWLSWIACK, -0.96 ± 2.7.

As for VRTYWTYANWIFMYKKRAQA, the amyloid nucleation score was -1.85 ± 2.4. With LLKENWFNCSLWHDIVGISM the figure was -0.596 ± 0.59. Take LIINGD: the amyloid nucleation score was found to be 0.609 ± 1.2. For HTFHVL, the amyloid nucleation score result is “inactive”. For QDQSGPVLASCIWYLCSETN the value was 7.403 ± 0.052; for FLVKSIRTVGL, 0.605 ± 0.36; for PRSMRKNSYGLGSGVRDHVQ, -0.238 ± 0.56.

HDNISLG returned an amyloid nucleation score of 3.39 ± 0.12. CKSRR displayed an amyloid nucleation score of 0.034 ± 0.69. NCRMTGCLSQRRQKECCNRI: the amyloid nucleation score was -0.755 ± 0.51. SGDIKSFWMERCFCLVTHGK yielded an amyloid nucleation score of -0.115 ± 0.57. Take GLGDVKNHEFNHVDAEGSGR: the amyloid nucleation score was -0.741 ± 0.83. For PREDRGLSWISGYYYYLVAG the value was -0.341 ± 0.47.

With GYACTFVLA, the amyloid nucleation score was determined as 0.136 ± 0.51. With AIFKSITDPVLWSGLF the figure was 0.562 ± 0.97. With ASYGIIVSSLFFNGRGCHWS the figure was 3.81 ± 0.096. Consider LRDTFPVLLAILCMNIINNC, for which the amyloid nucleation score was -0.14 ± 0.29.

In the case of VCSSLFSSCPL, the amyloid nucleation score was found to be 0.735 ± 0.37.

As for VVLPGYMLNGFPNESNLIWP, the amyloid nucleation score is -1.22 ± 0.49.
